In patent US20260250320A1, “LIPIDATED PEPTIDE INHIBITORS OF INTERLEUKIN-23 RECEPTOR” (Janssen Pharmaceutica NV, priority 2023, published 2026):
*1 amine or outer side, *2 acyl side, *3 side chain or, on linkers, in order; H or OH if unused. Bridges are numbered along the chain shown (N, C = ends). Primed or numbered codes have the meaning given here. Where no end group is shown, it is not given here. Side-chain parts run from the residue outwards. [ ]: non-standard residue; d: D form. The star is where a group is joined. code d = side-chain group of K(d): lysine given as (2R)-2-(4-((5-amino-5-carboxypentyl)amino)-4-oxobutanamido)-3-carboxy-N,N,N-trimethylpropan-1-aminium, C[N+](C)(C)C[C@@H](CC(=O)O)NC(=O)CCC(=O)*; code d″ = lysine side-chain amide of a carnitine-succinyl group ((2R)-3-carboxy-N,N,N-trimethylpropan-1-aminium amide; PEG2′ = PEG2 spacer unit (not further defined); Trp(7-Me) = Cc1cccc2c(C[C@H](N)C(=O)O)c[nH]c12; γGlu = O=C(O)[C@H](CCC(=O)[*:2])N[*:1]; 2Nal = N[C@@H](Cc1ccc2ccccc2c1)C(=O)O; AEF = NCCOc1ccc(C[C@H](N)C(=O)O)cc1; 3Pal = N[C@@H](Cc1cccnc1)C(=O)O; NMeK = CN[C@@H](CCCCN)C(=O)O; Pen = CC(C)(S)[C@H](N)C(=O)O; PEG12′ = not defined here; PEG2″ = PEG2 spacer unit; PEG4′ = not defined here; dAEF′ = not defined here; Thp = NC1(C(=O)O)CCOCC1; Sar = CNCC(=O)O

T1: interleukin-23 receptor (IL-23R) (UniProt Q5VWK5 24-629, limits assumed)
T1 sequence (looked up): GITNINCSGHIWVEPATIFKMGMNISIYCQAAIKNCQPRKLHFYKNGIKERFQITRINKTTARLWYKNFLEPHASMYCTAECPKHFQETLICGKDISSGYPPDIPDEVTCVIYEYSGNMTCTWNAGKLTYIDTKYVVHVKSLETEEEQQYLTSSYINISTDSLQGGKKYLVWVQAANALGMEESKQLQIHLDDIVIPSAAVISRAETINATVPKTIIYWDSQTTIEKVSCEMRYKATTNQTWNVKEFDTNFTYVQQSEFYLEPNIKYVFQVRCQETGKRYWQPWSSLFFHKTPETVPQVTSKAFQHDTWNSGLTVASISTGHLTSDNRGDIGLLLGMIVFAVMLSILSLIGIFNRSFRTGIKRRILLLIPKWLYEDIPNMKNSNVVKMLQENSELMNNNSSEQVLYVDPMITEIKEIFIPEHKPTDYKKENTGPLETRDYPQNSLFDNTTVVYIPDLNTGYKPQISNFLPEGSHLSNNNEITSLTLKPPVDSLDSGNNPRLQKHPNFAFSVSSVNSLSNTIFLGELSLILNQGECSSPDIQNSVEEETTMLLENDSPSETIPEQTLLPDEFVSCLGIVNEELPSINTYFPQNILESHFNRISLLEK


Legend:
[1] = target: T1, interleukin-23 receptor (IL-23R); test: cell-based or functional assay
[2] = target: T1, interleukin-23 receptor (IL-23R); test: cell-based or functional assay; remark: listed apart in the source

| Binder | PBMC pSTAT3 IC50 [1] [nM] | IC50, IL23R reporter assay [2] [nM] |
| --- | --- | --- |
| Ac-[dR][Pen]NT[Trp(7-Me)]K(Ac)[Pen][AEF][2Nal][Thp]K([PEG4′-AcCl])N[3Pal][Sar]K([PEG2′-PEG2′-γGlu-C18OH])-NH2 (disulfide 2-7 (inferred)) [SEQ ID NO: 4] | < 0.5 | < 50 |
| XNTXXXXXXENXXK (MeCO-Pen(3)-N-T-7MeW-K(Ac)-Pen(3)-AEF-2Nal-THP-E-N-3Pya-Sar-K(PEG2PEG2gEC18OH)-CONH2) [SEQ ID NO: 27] | < 0.5 | < 50 |
| Ac-[dR][Pen]NT[Trp(7-Me)]K(Ac)[Pen][dAEF′][2Nal][Thp]K([PEG2′-PEG2′-γGlu-C18OH])N[3Pal][Sar]-NH2 (disulfide 2-7 (inferred); reading uncertain; also: printed as MeCO-r-Pen(3)-N-T-7MeW-K(Ac)-Pen(3)-AEF(d)-2Nal-THP-K(PEG2PEG2gEC18OH)-N-3Pya-Sar-CONH2) [SEQ ID NO: 22] | < 0.5 | < 50 |
| Ac-K([PEG2′-PEG2′-γGlu-C18OH])[Pen]NT[Trp(7-Me)]K(Ac)[Pen][AEF][2Nal][Thp]K(Ac)N[3Pal][Sar]-NH2 (disulfide 2-7 (inferred)) [SEQ ID NO: 39] | < 0.5 | < 50 |
| Ac-[dK]([PEG2′-PEG2′-γGlu-C18OH])[Pen]XT[Trp(7-Me)]K(Ac)[Pen][AEF][2Nal][Thp]EN[3Pal][Sar]-NH2 (disulfide 2-7 (inferred); not fully specified (residue 3); printed as MeCO-k(PEG2PEG2gEC18OH)-Pen(3)-K(d)-T-7MeW-K(Ac)-Pen(3)-AEF-2Nal-THP-E-N-3Pya-Sar-CONH2) [SEQ ID NO: 35] | < 0.5 | < 50 |
| [dR][Pen]NT[Trp(7-Me)]K(Ac)[Pen][AEF][2Nal][Thp]EN[3Pal][NMeK](code d)-NH2 (disulfide 2-7 (inferred); not fully specified (N-terminus); printed as HOC18gEPEG2PEG2CO-r-Pen(3)-N-T-7MeW-K(Ac)-Pen(3)-AEF-2Nal-THP-E-N-3Pya-NMeK(d)-CONH2) [SEQ ID NO: 43] | < 0.5 | < 50 |
| Ac-[dR][Pen]NT[Trp(7-Me)]Q[Pen][AEF][2Nal][Thp]EN[3Pal][Sar]K([PEG2′-PEG2′-γGlu-C18OH])-NH2 (disulfide 2-7 (inferred)) [SEQ ID NO: 38] | < 0.5 | < 50 |
| [dR][Pen]NT[Trp(7-Me)]K(code d)[Pen][AEF][2Nal][Thp]EN[3Pal][Sar]-NH2 (disulfide 2-7 (inferred); not fully specified (N-terminus); printed as HOC18gEPEG2PEG2CO-r-Pen(3)-N-T-7MeW-K(d)-Pen(3)-AEF-2Nal-THP-E-N-3Pya-Sar-CONH2) [SEQ ID NO: 46] | < 0.5 | < 50 |
| Ac-K[Pen]NT[Trp(7-Me)]K(Ac)[Pen][AEF][2Nal][Thp]EN[3Pal][Sar]-NH2 (disulfide 2-7 (inferred); not fully specified (residue 1); printed as MeCO-k(PEG12gEC20OH)-Pen(3)-N-T-7MeW-K(Ac)-Pen(3)-AEF-2Nal-THP-E-N-3Pya-Sar-CONH2) [SEQ ID NO: 26] | < 0.5 | < 50 |
| XNTXXXXXXENXXK (MeCO-Pen(3)-N-T-7MeW-K(Ac)-Pen(3)-AEF-2Nal-THP-E-N-3Pya-Sar-K(PEG2NMePEG2NMegENMeC18Tetrazole)-CONH2) [SEQ ID NO: 3] | < 0.5 | < 50 |
| Ac-[dK]([PEG2′-PEG2′-γGlu-C18OH])[Pen]NT[Trp(7-Me)]X[Pen][AEF][2Nal][Thp]EN[3Pal][Sar]-NH2 (disulfide 2-7 (inferred); not fully specified (residue 6); printed as MeCO-k(PEG2PEG2gEC18OH)-Pen(3)-N-T-7MeW-K(d)-Pen(3)-AEF-2Nal-THP-E-N-3Pya-Sar-CONH2) [SEQ ID NO: 34] | < 0.5 | < 50 |
| Ac-[dK]([PEG2′-PEG2′-γGlu-C18OH])[Pen]NT[Trp(7-Me)]K(Ac)[Pen][AEF][2Nal][Thp]XN[3Pal][Sar]-NH2 (disulfide 2-7 (inferred); not fully specified (residue 11); printed as MeCO-k(PEG2PEG2gEC18OH)-Pen(3)-N-T-7MeW-K(Ac)-Pen(3)-AEF-2Nal-THP-K(d)-N-3Pya-Sar-CONH2) [SEQ ID NO: 33] | < 0.5 | < 50 |
| Ac-[dK]([PEG2′-PEG2′-γGlu-C18OH])[Pen]NT[Trp(7-Me)]K(Ac)[Pen][AEF][2Nal][Thp]EN[3Pal][NMeK](code d)-NH2 (disulfide 2-7 (inferred)) [SEQ ID NO: 42] | < 0.5 | < 50 |
| Ac-[dR][Pen]XT[Trp(7-Me)]K(Ac)[Pen][AEF][2Nal][Thp]K([PEG2′-PEG2′-γGlu-C18OH])N[3Pal][Sar]-NH2 (disulfide 2-7 (inferred); not fully specified (residue 3); printed as MeCO-r-Pen(3)-K(d)-T-7MeW-K(Ac)-Pen(3)-AEF-2Nal-THP-K(PEG2PEG2gEC18OH)-N-3Pya-Sar-CONH2) [SEQ ID NO: 37] | < 0.5 | < 50 |
| Ac-[dR][Pen]NT[Trp(7-Me)]K(Ac)[Pen][AEF][2Nal][Thp]K([PEG2′-PEG2′-γGlu-C18OH])N[3Pal]X-NH2 (disulfide 2-7 (inferred); not fully specified (residue 14); printed as MeCO-r-Pen(3)-N-T-7MeW-K(Ac)-Pen(3)-AEF-2Nal-THP-K(PEG2PEG2gEC18OH)-N-3Pya-NMeK(d)-CONH2) [SEQ ID NO: 21] | < 0.5 | < 50 |
| Ac-[dR][Pen]XT[Trp(7-Me)]K(Ac)[Pen][AEF][2Nal][Thp]EN[3Pal][NMeK]([PEG2′-PEG2′-γGlu-C18OH])-NH2 (disulfide 2-7 (inferred); not fully specified (residue 3); printed as MeCO-r-Pen(3)-K(d)-T-7MeW-K(Ac)-Pen(3)-AEF-2Nal-THP-E-N-3Pya-NMeK(PEG2PEG2gEC18OH)-CONH2) [SEQ ID NO: 30] | < 0.5 | < 50 |

Now from value to binder:

| PBMC pSTAT3 IC50 [1] [nM] | IC50, IL23R reporter assay [2] [nM] | Binder |
| --- | --- | --- |
| ≥ 5 | ≥ 500 | XNTXXXXXXENXXK (not fully specified; MeCO-Pen(3)-N-T-7MeW-K(Ac)-Pen(3)-AEF-2Nal-THP-E-N-3Pya-Sar-K(PEG2PEG2gEC18OH)-CONH(PEG3a)) [SEQ ID NO: 150] |
| < 0.5 | < 50 | Ac-[dR][Pen]NT[Trp(7-Me)]K(Ac)[Pen][AEF][2Nal][Thp]EN[3Pal][Sar]K([PEG12′-γGlu-C18OH])-NH2 (disulfide 2-7 (inferred)) [SEQ ID NO: 133] |
| < 0.5 | < 50 | [dR][Pen]K(code d)T[Trp(7-Me)]K(Ac)[Pen][AEF][2Nal][Thp]EN[3Pal][Sar]-NH2 (disulfide 2-7 (inferred); not fully specified (N-terminus); printed as HOC18gEPEG2PEG2CO-r-Pen(3)-K(d)-T-7MeW-K(Ac)-Pen(3)-AEF-2Nal-THP-E-N-3Pya-Sar-CONH2) [SEQ ID NO: 47] |
| < 0.5 | < 50 | Ac-[dK]([PEG12′-γGlu-C18OH])[Pen]NT[Trp(7-Me)]K(Ac)[Pen][AEF][2Nal][Thp]EN[3Pal][Sar]-NH2 (disulfide 2-7 (inferred)) [SEQ ID NO: 117] |
| < 0.5 | < 50 | Ac-[dR][Pen]NT[Trp(7-Me)]K(Ac)[Pen][AEF][2Nal][Thp]EN[3Pal][Sar]K([PEG12′-γGlu-C20OH])-NH2 (disulfide 2-7 (inferred)) [SEQ ID NO: 134] |
| < 0.5 | < 50 | XNTXXXXXXENXXK (MeCO-Pen(3)-N-T-7MeW-K(Ac)-Pen(3)-AEF-2Nal-THP-E-N-3Pya-Sar-K(PEG12gEC18OH)-CONH2) [SEQ ID NO: 161] |
| < 0.5 | ≥ 500 | Ac-[dR][Pen]NT[Trp(7-Me)]K(Ac)[Pen][AEF][2Nal][Thp]K(code d″)N[3Pal][Sar]K([PEG2″-PEG2″-γGlu-C18OH])-NH2 (disulfide 2-7 (inferred)) [SEQ ID NO: 51] |
| ≥ 5 | ≥ 500 | XNTXXXXXXENXXK (MeCO-Pen(3)-N-T-7MeW-K(Ac)-Pen(3)-AEF-2Nal-THP-E-N-3Pya-Sar-K(PEG2PEG2gEC18OH)-CON(Me)2) [SEQ ID NO: 149] |
